Measured values published in patent publication US20240327497A1.
“And” between values parts separate entries of the source, which are not always exact repeats. Identical values can stand only once.

What was measured:
[1] = biological target: canine FcRn (FcRn large subunit with canine beta-2-microglobulin) (canine); experiment: SPR pH 5.5, SASA-Fc captured on BSA, FcRn 200 nM
[2] = biological target: canine FcRn (FcRn large subunit with canine beta-2-microglobulin) (canine); experiment: SPR pH 5.5, SASA-Fc captured on BSA, FcRn 400 nM
[3] = biological target: canine FcRn (FcRn large subunit with canine beta-2-microglobulin) (canine); experiment: SPR pH 5.5, SASA-Fc captured on BSA, FcRn 200 nM; remark: listed apart in the source
[4] = biological target: canine FcRn (FcRn large subunit with canine beta-2-microglobulin) (canine); experiment: SPR pH 5.5, SASA-Fc captured on BSA, FcRn 200 nM; remark: listed apart in the source
[5] = biological target: canine FcRn (FcRn large subunit with canine beta-2-microglobulin) (canine); experiment: SPR pH 6.0, SASA-Fc captured on BSA, FcRn 100-800 nM
[6] = biological target: canine FcRn (FcRn large subunit with canine beta-2-microglobulin) (canine); experiment: SPR pH 6.0, SASA-Fc captured on BSA, FcRn 200 nM
[7] = biological target: canine FcRn (FcRn large subunit with canine beta-2-microglobulin) (canine); experiment: SPR pH 5.5, SASA-Fc captured on BSA, FcRn 200 nM; remark: listed apart in the source
[8] = biological target: canine FcRn (FcRn large subunit with canine beta-2-microglobulin) (canine); experiment: SPR pH 5.5, SASA-Fc captured on BSA, FcRn 200 nM; remark: listed apart in the source
[9] = biological target: canine FcRn (FcRn large subunit with canine beta-2-microglobulin) (canine); experiment: SPR pH 5.5, SASA-Fc captured on BSA, FcRn 200 nM; remark: listed apart in the source
[10] = biological target: canine FcRn (FcRn large subunit with canine beta-2-microglobulin) (canine); experiment: SPR pH 5.5, SASA-Fc captured on BSA, FcRn 200 nM; remark: listed apart in the source
[11] = biological target: canine FcRn (FcRn large subunit with canine beta-2-microglobulin) (canine); experiment: SPR pH 5.5, SASA-Fc captured on BSA, FcRn 200 nM; remark: listed apart in the source
[12] = biological target: canine FcRn (FcRn large subunit with canine beta-2-microglobulin) (canine); experiment: SPR pH 5.5, SASA-Fc captured on BSA, FcRn 100-800 nM
[13] = biological target: canine FcRn (FcRn large subunit with canine beta-2-microglobulin) (canine); experiment: SPR pH 5.5, SASA-Fc captured on BSA, FcRn 200 nM; remark: listed apart in the source
[14] = biological target: canine FcRn (FcRn large subunit with canine beta-2-microglobulin) (canine); experiment: SPR pH 5.5, SASA-Fc captured on BSA, FcRn 400 nM; average of 12 wild-type runs
[15] = biological target: canine FcRn (FcRn large subunit with canine beta-2-microglobulin) (canine); experiment: SPR pH 6.0, IgG coupled to CM5, FcRn 200-3200 nM
[16] = biological target: canine FcRn (FcRn large subunit with canine beta-2-microglobulin) (canine); experiment: SPR pH 5.9, IgG coupled to C1 chip, steady state fit

B1: canine IgGB Fc (CH2-CH3) E380A with N-terminal SASA tag (Fc fusion, part only; not given: SASA tag, not shown: another chain or arm of the molecule; small tags and cut ends)
Fc: APEMLGGPSVFIFPPKPKDTLLIARTPEVTCVVVDLDPEDPEVQISWFVDGKQMQTAKTQPREEQFNGTYRVVSVLPIGHQDWLKGKQFTCKVNNKALPSPIERTISKARGQAHQPSVYVLPPSREELSKNTVSLTCLIKDFFPPDIDVAWQSNGQQEPESKYRTTPPQLDEDGSYFLYSKLSVDKSRWQRGDTFICAVMHEALHNHYTQESLSHSPGK
Kd [1]: 1320 nM and 1570 nM
koff [1]: 0.223 s⁻¹ and 0.239 s⁻¹
kon [1]: 168000 M⁻¹ s⁻¹ and 152000 M⁻¹ s⁻¹
Kd [2]: 618 nM and 747 nM
WT KD Avg/Variant KD [2]: 0.76 and 0.92
koff [2]: 0.369 s⁻¹ and 0.18 s⁻¹
kon [2]: 598000 M⁻¹ s⁻¹ and 241000 M⁻¹ s⁻¹

B2: wild-type canine IgGB Fc (CH2-CH3) with N-terminal SASA tag (Fc fusion, part only; not given: SASA tag, not shown: another chain or arm of the molecule; small tags and cut ends)
Fc: APEMLGGPSVFIFPPKPKDTLLIARTPEVTCVVVDLDPEDPEVQISWFVDGKQMQTAKTQPREEQFNGTYRVVSVLPIGHQDWLKGKQFTCKVNNKALPSPIERTISKARGQAHQPSVYVLPPSREELSKNTVSLTCLIKDFFPPDIDVEWQSNGQQEPESKYRTTPPQLDEDGSYFLYSKLSVDKSRWQRGDTFICAVMHEALHNHYTQESLSHSPGK
Kd [1]: 1560 nM and 754 nM
koff [1]: 0.179 s⁻¹ and 0.182 s⁻¹
kon [1]: 115000 M⁻¹ s⁻¹ and 242000 M⁻¹ s⁻¹
Kd [3]: 8990 nM and 3110 nM
koff [3]: 0.347 s⁻¹ and 0.354 s⁻¹
kon [3]: 38700 M⁻¹ s⁻¹ and 114000 M⁻¹ s⁻¹
Kd [4]: 884 nM and 862 nM
koff [4]: 0.21 s⁻¹ and 0.218 s⁻¹
kon [4]: 237000 M⁻¹ s⁻¹ and 253000 M⁻¹ s⁻¹
Kd [5]: 1820 nM
koff [5]: 0.417 s⁻¹
kon [5]: 230000 M⁻¹ s⁻¹
Kd [6]: 939 nM and 999 nM
koff [6]: 0.14 s⁻¹ and 0.144 s⁻¹
kon [6]: 149000 M⁻¹ s⁻¹ and 144000 M⁻¹ s⁻¹
Kd [7]: 639 nM and 692 nM
koff [7]: 0.17 s⁻¹ and 0.171 s⁻¹
kon [7]: 267000 M⁻¹ s⁻¹ and 247000 M⁻¹ s⁻¹
Kd [8]: 1710 nM and 2660 nM
koff [8]: 0.288 s⁻¹ and 0.326 s⁻¹
kon [8]: 168000 M⁻¹ s⁻¹ and 123000 M⁻¹ s⁻¹
Kd [9]: 2050 nM and 2990 nM
koff [9]: 0.31 s⁻¹ and 0.315 s⁻¹
kon [9]: 151000 M⁻¹ s⁻¹ and 105000 M⁻¹ s⁻¹
Kd [10]: 1010 nM and 673 nM
koff [10]: 0.195 s⁻¹ and 0.297 s⁻¹
kon [10]: 194000 M⁻¹ s⁻¹ and 442000 M⁻¹ s⁻¹
Kd [11]: 502 nM and 784 nM
koff [11]: 0.169 s⁻¹ and 0.207 s⁻¹
kon [11]: 336000 M⁻¹ s⁻¹ and 264000 M⁻¹ s⁻¹
Kd [12]: 3150 nM
koff [12]: 0.527 s⁻¹
kon [12]: 168000 M⁻¹ s⁻¹
Kd [13]: 955 nM and 1310 nM
koff [13]: 0.181 s⁻¹ and 0.209 s⁻¹
kon [13]: 190000 M⁻¹ s⁻¹ and 159000 M⁻¹ s⁻¹
Kd [14]: 566 nM

B3: canine IgGB Fc (CH2-CH3) L252Y with N-terminal SASA tag (Fc fusion, part only; not given: SASA tag, not shown: another chain or arm of the molecule; small tags and cut ends)
Fc: APEMLGGPSVFIFPPKPKDTLYIARTPEVTCVVVDLDPEDPEVQISWFVDGKQMQTAKTQPREEQFNGTYRVVSVLPIGHQDWLKGKQFTCKVNNKALPSPIERTISKARGQAHQPSVYVLPPSREELSKNTVSLTCLIKDFFPPDIDVEWQSNGQQEPESKYRTTPPQLDEDGSYFLYSKLSVDKSRWQRGDTFICAVMHEALHNHYTQESLSHSPGK
Kd [8]: 98.7 nM and 114 nM
koff [8]: 0.0397 s⁻¹ and 0.041 s⁻¹
kon [8]: 402000 M⁻¹ s⁻¹ and 358000 M⁻¹ s⁻¹
Kd [12]: 173 nM
koff [12]: 0.0476 s⁻¹
kon [12]: 275000 M⁻¹ s⁻¹

B4: canine IgGB Fc (CH2-CH3) L252M with N-terminal SASA tag (Fc fusion, part only; not given: SASA tag, not shown: another chain or arm of the molecule; small tags and cut ends)
Fc: APEMLGGPSVFIFPPKPKDTLMIARTPEVTCVVVDLDPEDPEVQISWFVDGKQMQTAKTQPREEQFNGTYRVVSVLPIGHQDWLKGKQFTCKVNNKALPSPIERTISKARGQAHQPSVYVLPPSREELSKNTVSLTCLIKDFFPPDIDVEWQSNGQQEPESKYRTTPPQLDEDGSYFLYSKLSVDKSRWQRGDTFICAVMHEALHNHYTQESLSHSPGK
Kd [8]: 869 nM and 774 nM
koff [8]: 0.168 s⁻¹ and 0.169 s⁻¹
kon [8]: 193000 M⁻¹ s⁻¹ and 218000 M⁻¹ s⁻¹

B5: canine IgGB Fc (CH2-CH3) A254T with N-terminal SASA tag (Fc fusion, part only; not given: SASA tag, not shown: another chain or arm of the molecule; small tags and cut ends)
Fc: APEMLGGPSVFIFPPKPKDTLLITRTPEVTCVVVDLDPEDPEVQISWFVDGKQMQTAKTQPREEQFNGTYRVVSVLPIGHQDWLKGKQFTCKVNNKALPSPIERTISKARGQAHQPSVYVLPPSREELSKNTVSLTCLIKDFFPPDIDVEWQSNGQQEPESKYRTTPPQLDEDGSYFLYSKLSVDKSRWQRGDTFICAVMHEALHNHYTQESLSHSPGK
Kd [9]: 2290 nM and 1340 nM
koff [9]: 0.375 s⁻¹ and 0.433 s⁻¹
kon [9]: 163000 M⁻¹ s⁻¹ and 323000 M⁻¹ s⁻¹

B6: canine IgGB Fc (CH2-CH3) Q311V with N-terminal SASA tag (Fc fusion, part only; not given: SASA tag, not shown: another chain or arm of the molecule; small tags and cut ends)
Fc: APEMLGGPSVFIFPPKPKDTLLIARTPEVTCVVVDLDPEDPEVQISWFVDGKQMQTAKTQPREEQFNGTYRVVSVLPIGHVDWLKGKQFTCKVNNKALPSPIERTISKARGQAHQPSVYVLPPSREELSKNTVSLTCLIKDFFPPDIDVEWQSNGQQEPESKYRTTPPQLDEDGSYFLYSKLSVDKSRWQRGDTFICAVMHEALHNHYTQESLSHSPGK
Kd [7]: 372 nM and 439 nM
koff [7]: 0.566 s⁻¹ and 0.696 s⁻¹
kon [7]: 1.52e+06 M⁻¹ s⁻¹ and 1.59e+06 M⁻¹ s⁻¹

B7: canine IgGB Fc (CH2-CH3) D378V with N-terminal SASA tag (Fc fusion, part only; not given: SASA tag, not shown: another chain or arm of the molecule; small tags and cut ends)
Fc: APEMLGGPSVFIFPPKPKDTLLIARTPEVTCVVVDLDPEDPEVQISWFVDGKQMQTAKTQPREEQFNGTYRVVSVLPIGHQDWLKGKQFTCKVNNKALPSPIERTISKARGQAHQPSVYVLPPSREELSKNTVSLTCLIKDFFPPDIVVEWQSNGQQEPESKYRTTPPQLDEDGSYFLYSKLSVDKSRWQRGDTFICAVMHEALHNHYTQESLSHSPGK
Kd [11]: 693 nM and 873 nM
koff [11]: 0.159 s⁻¹ and 0.16 s⁻¹
kon [11]: 229000 M⁻¹ s⁻¹ and 184000 M⁻¹ s⁻¹

B8: anti-NGF canine IgGB antibody with wild-type IgGB Fc (antibody, part only; not given: Anti-NGF variable domains, not shown: another chain or arm of the molecule; small tags and cut ends)
Fc: APEMLGGPSVFIFPPKPKDTLLIARTPEVTCVVVDLDPEDPEVQISWFVDGKQMQTAKTQPREEQFNGTYRVVSVLPIGHQDWLKGKQFTCKVNNKALPSPIERTISKARGQAHQPSVYVLPPSREELSKNTVSLTCLIKDFFPPDIDVEWQSNGQQEPESKYRTTPPQLDEDGSYFLYSKLSVDKSRWQRGDTFICAVMHEALHNHYTQESLSHSPGK
Kd [15]: 3370 nM
koff [15]: 0.385 s⁻¹
kon [15]: 114000 M⁻¹ s⁻¹
Kd [16]: 951 nM

B9: anti-NGF canine IgGB antibody, Fc variant A426H + N434R (antibody, part only; not given: Anti-NGF variable domains, not shown: another chain or arm of the molecule; small tags and cut ends)
Fc: APEMLGGPSVFIFPPKPKDTLLIARTPEVTCVVVDLDPEDPEVQISWFVDGKQMQTAKTQPREEQFNGTYRVVSVLPIGHQDWLKGKQFTCKVNNKALPSPIERTISKARGQAHQPSVYVLPPSREELSKNTVSLTCLIKDFFPPDIDVEWQSNGQQEPESKYRTTPPQLDEDGSYFLYSKLSVDKSRWQRGDTFICHVMHEALHRHYTQESLSHSPGK
Kd [15]: 2480 nM
koff [15]: 0.264 s⁻¹
kon [15]: 107000 M⁻¹ s⁻¹
